Source: patent publication US20030180895A1

Key:
Test in all cases: cell-based or functional assay
[1] = molecular target: Bacillus subtilis xylanase A mutant N114D (Bacillus subtilis) (UniProt P18429)
[2] = molecular target: Bacillus subtilis xylanase A mutant T123Y (Bacillus subtilis) (UniProt P18429)
[3] = molecular target: Bacillus subtilis xylanase A mutant R122A (Bacillus subtilis) (UniProt P18429)
[4] = molecular target: Bacillus subtilis xylanase A mutant D121A (Bacillus subtilis) (UniProt P18429)
[5] = molecular target: Bacillus subtilis xylanase A mutant Y166F (Bacillus subtilis) (UniProt P18429)
[6] = molecular target: Bacillus subtilis wild type xylanase A (Bacillus subtilis) (UniProt P18429)

- Relative inhibition, % at 1, 26 XIU/ml [1]: 84%
- Relative inhibition, % at 3, 15 XIU/ml [1]: 57%
- Relative inhibition, % at 6, 3 XIU/ml [1]: 39%
- Relative inhibition, % at 12, 6 XIU/ml [1]: 29%
- Relative inhibition, % at 1, 26 XIU/ml [2]: 80%
- Relative inhibition, % at 3, 15 XIU/ml [2]: 47%
- Relative inhibition, % at 6, 3 XIU/ml [2]: 28%
- Relative inhibition, % at 12, 6 XIU/ml [2]: 27%
- Relative inhibition, % at 1, 26 XIU/ml [3]: 78%
- Relative inhibition, % at 3, 15 XIU/ml [3]: 46%
- Relative inhibition, % at 6, 3 XIU/ml [3]: 33%
- Relative inhibition, % at 12, 6 XIU/ml [3]: 26%
- Relative inhibition, % at 1, 26 XIU/ml [4]: 81%
- Relative inhibition, % at 3, 15 XIU/ml [4]: 50%
- Relative inhibition, % at 6, 3 XIU/ml [4]: 27%
- Relative inhibition, % at 12, 6 XIU/ml [4]: 21%
- Relative inhibition, % at 1, 26 XIU/ml [5]: 74%
- Relative inhibition, % at 3, 15 XIU/ml [5]: 39%
- Relative inhibition, % at 6, 3 XIU/ml [5]: 22%
- Relative inhibition, % at 12, 6 XIU/ml [5]: 20%
- Relative inhibition, % at 1, 26 XIU/ml [6]: 75%
- Relative inhibition, % at 3, 15 XIU/ml [6]: 40%
- Relative inhibition, % at 6, 3 XIU/ml [6]: 24%
- Relative inhibition, % at 12, 6 XIU/ml [6]: 20%
Substance: wheat endogenous xylanase inhibitor
